Experimental data as given in the RNAGym collection of RNA variant scans (doi:10.1093/molbev/msab373).

B1: Azoarcus group I ribozyme (parent)
chain: GUGCCUUGCGCCGGGAAACCACGCAAGGGAUGGUGUCAAAUUCGGCGAAACCUAAGCGCCCGCCCGGGCGUAUGGCAACGCCGAGCCAAGCUUCGGCGCCUGCGCCGAUGAAGGUGUAGAGACUAGACGGCACCCACCUAAGGCAAACGCUAUGGUGAAGGCAUAGUCCAGGGAGUGGCGAAAGUCACACAAACCGG

Variants of: B1
Experiment: reverse-splicing fitness (ratio to wild type); higher = more active; in vitro selection; Mg2+ level not given
Summary of the method: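 An in vitro group I ribozyme library with randomized positions was T7-transcribed and gel-purified. In triplicate, 10 pmol RNA in EPPS pH 7.5 was reacted with 50 pmoles of a 30-nt RNA substrate for 1 h at 37 °C across several added MgCl2 levels (1–48 mM), then stopped with EDTA. Products were reverse transcribed from a substrate-complementary primer, PCR-amplified and sequenced (HiSeq 4000). Fitness is a variant's read proportion after selection over that before, normalised to wild type.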

Question: Which reverse-splicing fitness does the source give for A111G A145U C150U C169G U176A here?
Answer: 0.0215

Question: For A111G A145U C150U C169G U176G, which reverse-splicing fitness is on record?
Answer: 0.0059

Question: For A111G A145U C150U C169G U176C, which reverse-splicing fitness is on record?
Answer: 0.0325

Question: For A111G A145U C150A C169A U176G, which reverse-splicing fitness is on record?
Answer: 0.00565

Question: With A111G A145U C150A C169A U176C as the variant, how does the reverse-splicing fitness read?
Answer: 0.00843

Question: With A111G A145U C150A C169A U176A as the variant, how does the reverse-splicing fitness read?
Answer: 0.0121

Question: With A111G A145C C150A C169A U176C as the variant, how does the reverse-splicing fitness read?
Answer: 0.00515

Question: With A111G A145C C150A C169A U176A as the variant, how does the reverse-splicing fitness read?
Answer: 0.0101

Question: Which reverse-splicing fitness does the source give for A111G A145C C150A C169A U176G here?
Answer: 0.00629

Question: With A111G A145G C150G C169A as the variant, how does the reverse-splicing fitness read?
Answer: 0.0128

Question: With A111G A145G C150G C169U as the variant, how does the reverse-splicing fitness read?
Answer: 0.0298

Question: Which reverse-splicing fitness does the source give for A111G A145G C150G C169G here?
Answer: 0.0171

Question: Which reverse-splicing fitness does the source give for A111U A120C A145C C150A C169U U176C here?
Answer: 0.0123

Question: With A111U A120C A145C C150A C169U U176A as the variant, how does the reverse-splicing fitness read?
Answer: 0.0169

Question: With A111U A120C A145C C150A C169U U176G as the variant, how does the reverse-splicing fitness read?
Answer: 0.00524

Question: With A111G A145G C150G C169A U176G as the variant, how does the reverse-splicing fitness read?
Answer: 0.00761

Question: Which reverse-splicing fitness does the source give for A111G A145G C150G C169A U176C here?
Answer: 0.0135

Question: With A111G A145G C150G C169A U176A as the variant, how does the reverse-splicing fitness read?
Answer: 0.0122

Question: For A111G A145U C150U C169U, which reverse-splicing fitness is on record?
Answer: 0.132

Question: For A111G A145U C150U C169G, which reverse-splicing fitness is on record?
Answer: 0.0749

Question: For A111G A145U C150U C169A, which reverse-splicing fitness is on record?
Answer: 0.0341

Question: Which reverse-splicing fitness does the source give for A111G A145G C150U C169A U176A here?
Answer: 0.0193

Question: With A111G A145G C150U C169A U176G as the variant, how does the reverse-splicing fitness read?
Answer: 0.00505

Question: Which reverse-splicing fitness does the source give for A111G A145G C150U C169A U176C here?
Answer: 0.0252

Question: Which reverse-splicing fitness does the source give for A111G A145C C150U C169U here?
Answer: 0.0495

Question: For A111G A145C C150U C169A, which reverse-splicing fitness is on record?
Answer: 0.0167

Question: With A111G A145C C150U C169G as the variant, how does the reverse-splicing fitness read?
Answer: 0.0327

Question: Which reverse-splicing fitness does the source give for A111U A120C A145C C150A C169G here?
Answer: 0.00677

Question: With A111U A120C A145C C150A C169A as the variant, how does the reverse-splicing fitness read?
Answer: 0.00677

Question: With A111U A120C A145C C150A C169U as the variant, how does the reverse-splicing fitness read?
Answer: 0.013

Question: Which reverse-splicing fitness does the source give for A111G U176C here?
Answer: 0.752

Question: Which reverse-splicing fitness does the source give for A111G U176G here?
Answer: 0.354

Question: For A111G U176A, which reverse-splicing fitness is on record?
Answer: 0.794

Question: For A111G C169A U176A, which reverse-splicing fitness is on record?
Answer: 0.0183

Question: Which reverse-splicing fitness does the source give for A111G C169A U176C here?
Answer: 0.0226

Question: With A111G C169A U176G as the variant, how does the reverse-splicing fitness read?
Answer: 0.00542

Question: Which reverse-splicing fitness does the source give for A111G A120U C150U here?
Answer: 0.538

Question: Which reverse-splicing fitness does the source give for A111G A145G C150A C169A U176A here?
Answer: 0.0183

Question: Which reverse-splicing fitness does the source give for A111G A145G C150A C169A U176G here?
Answer: 0.00563

Question: Which reverse-splicing fitness does the source give for A111G A145G C150A C169A U176C here?
Answer: 0.0214

Question: Which reverse-splicing fitness does the source give for A111U A120C A145C C150A C169A U176G here?
Answer: 0.00536

Question: For A111U A120C A145C C150A C169A U176A, which reverse-splicing fitness is on record?
Answer: 0.0101

Question: Which reverse-splicing fitness does the source give for A111U A120C A145C C150A C169A U176C here?
Answer: 0.00583

Question: Which reverse-splicing fitness does the source give for A111G C150G U176G here?
Answer: 0.0168

Question: With A111G C150G U176C as the variant, how does the reverse-splicing fitness read?
Answer: 0.166

Question: With A111G C150G U176A as the variant, how does the reverse-splicing fitness read?
Answer: 0.0982

Question: With A111G A145U U176A as the variant, how does the reverse-splicing fitness read?
Answer: 0.755

Question: With A111G A145U U176G as the variant, how does the reverse-splicing fitness read?
Answer: 0.524

Question: For A111G A145U U176C, which reverse-splicing fitness is on record?
Answer: 0.809

Question: With A111G A120U C150U C169G as the variant, how does the reverse-splicing fitness read?
Answer: 0.0472

Question: With A111G A120U C150U C169U as the variant, how does the reverse-splicing fitness read?
Answer: 0.0666

Question: For A111G A120U C150U C169A, which reverse-splicing fitness is on record?
Answer: 0.00587

Question: For A111G A145U C150U C169U U176C, which reverse-splicing fitness is on record?
Answer: 0.056

Question: With A111G A145U C150U C169U U176A as the variant, how does the reverse-splicing fitness read?
Answer: 0.0375

Question: For A111G A145U C150U C169U U176G, which reverse-splicing fitness is on record?
Answer: 0.00691

Question: With A111G A145U C150A U176C as the variant, how does the reverse-splicing fitness read?
Answer: 0.237

Question: With A111G A145U C150A U176G as the variant, how does the reverse-splicing fitness read?
Answer: 0.121

Question: With A111G A145U C150A U176A as the variant, how does the reverse-splicing fitness read?
Answer: 0.224

Question: Which reverse-splicing fitness does the source give for A111G A145C C150G C169U U176C here?
Answer: 0.0138

Question: With A111G A145C C150G C169U U176A as the variant, how does the reverse-splicing fitness read?
Answer: 0.00841

Question: With A111G A145C C150G C169U U176G as the variant, how does the reverse-splicing fitness read?
Answer: 0.00527

Question: Which reverse-splicing fitness does the source give for A111U A120C A145C C150G C169A U176A here?
Answer: 0.00803

Question: With A111U A120C A145C C150G C169A U176G as the variant, how does the reverse-splicing fitness read?
Answer: 0.00509

Question: For A111U A120C A145C C150G C169A U176C, which reverse-splicing fitness is on record?
Answer: 0.00519

Question: For A111G A145G C150G U176G, which reverse-splicing fitness is on record?
Answer: 0.0237

Question: With A111G A145G C150G U176C as the variant, how does the reverse-splicing fitness read?
Answer: 0.184

Question: With A111G A145G C150G U176A as the variant, how does the reverse-splicing fitness read?
Answer: 0.111

Question: Which reverse-splicing fitness does the source give for A111G C150G C169A U176C here?
Answer: 0.0111

Question: Which reverse-splicing fitness does the source give for A111G C150G C169A U176G here?
Answer: 0.00557

Question: With A111G C150G C169A U176A as the variant, how does the reverse-splicing fitness read?
Answer: 0.0101

Question: Which reverse-splicing fitness does the source give for A111U A120C A145C C150U C169G U176A here?
Answer: 0.0171

Question: For A111G A145U C169A U176G, which reverse-splicing fitness is on record?
Answer: 0.00483

Question: For A111G A145U C169A U176C, which reverse-splicing fitness is on record?
Answer: 0.0203

Question: For A111G A145U C169A U176A, which reverse-splicing fitness is on record?
Answer: 0.0114

Question: With A111G A145C C150G as the variant, how does the reverse-splicing fitness read?
Answer: 0.45

Question: Which reverse-splicing fitness does the source give for A111G A145C C150U here?
Answer: 0.688

Question: For A111G A145C C150A, which reverse-splicing fitness is on record?
Answer: 0.229

Question: With A111G A145C C150A C169U U176G as the variant, how does the reverse-splicing fitness read?
Answer: 0.00473

Question: With A111G A145C C150A C169U U176C as the variant, how does the reverse-splicing fitness read?
Answer: 0.0113

Question: With A111G A145C C150A C169U U176A as the variant, how does the reverse-splicing fitness read?
Answer: 0.0152

Question: With A111G A145U C150G C169A U176C as the variant, how does the reverse-splicing fitness read?
Answer: 0.00907

Question: Which reverse-splicing fitness does the source give for A111G A145U C150G C169A U176G here?
Answer: 0.00461

Question: With A111G A145U C150G C169A U176A as the variant, how does the reverse-splicing fitness read?
Answer: 0.00932
